How the values were obtained:
[1] = target: Fur in the bacterial two-hybrid plasmid pUT18C-fur (Escherichia coli) (UniProt P0A9A9); test: two-hybrid; bacterial two-hybrid by reconstitution of adenylate cyclase (T18/T25) in E. coli BTH101; LB-X-Gal plates and β-galactosidase assay (Miller method)
[2] = target: the molecule itself; test: SEC; Superdex 200, 10 mM Tris-HCl pH 8.0, 100 mM NaCl, proteins at 100-200 uM, 4°C; 62 kDa and 27 kDa proteins as markers
Zn1Fur = target: T1, Zn1Fur (Escherichia coli, UniProt P0A9A9 1-148); test: FP; EDTA-treated Fur, no Mn2+ added; EMSA: 10 mM Tris-HCl pH 7.5, 1 mM MgCl2, 40 mM KCl, 0.1 mg/ml BSA, 5% glycerol, +/-100 uM MnCl2, 25 nM DNA, 37 C 15 min; FP: 10 mM Tris-HCl pH 7.5, 75 mM NaCl; conditions: protein: recombinant; tags: N-terminal His (PreScission-cleavable, removed if necessary); chain copies: 2; label: FAM; blunt
T1 sequence: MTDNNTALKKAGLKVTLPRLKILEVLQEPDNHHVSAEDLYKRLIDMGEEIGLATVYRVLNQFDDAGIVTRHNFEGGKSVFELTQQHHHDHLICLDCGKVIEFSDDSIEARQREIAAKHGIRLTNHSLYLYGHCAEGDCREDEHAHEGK

Fur P18A = target: T2, Fur P18A (Escherichia coli, UniProt P0A9A9 1-148, P18A); test: EMSA; 100 uM MnCl2; 30 uM protein; EMSA: 10 mM Tris-HCl pH 7.5, 1 mM MgCl2, 40 mM KCl, 0.1 mg/ml BSA, 5% glycerol, +/-100 uM MnCl2, 25 nM DNA, 37 C 15 min; FP: 10 mM Tris-HCl pH 7.5, 75 mM NaCl; conditions: protein: recombinant; tags: N-terminal His (PreScission-cleavable, removed if necessary); chain copies: 2; label: FAM; blunt
T2 sequence: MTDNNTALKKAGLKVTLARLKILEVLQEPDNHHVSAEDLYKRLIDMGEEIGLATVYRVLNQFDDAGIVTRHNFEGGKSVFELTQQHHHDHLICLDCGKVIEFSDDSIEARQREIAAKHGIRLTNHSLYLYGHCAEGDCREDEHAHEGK

Fur P18ASlyD = target: T3, Fur P18ASlyD (Escherichia coli, UniProt P0A9A9 1-148, P18A); test: as above; conditions: protein: recombinant; tags: N-terminal His (PreScission-cleavable, removed if necessary); chain copies: 2; label: FAM; blunt
T3 sequence: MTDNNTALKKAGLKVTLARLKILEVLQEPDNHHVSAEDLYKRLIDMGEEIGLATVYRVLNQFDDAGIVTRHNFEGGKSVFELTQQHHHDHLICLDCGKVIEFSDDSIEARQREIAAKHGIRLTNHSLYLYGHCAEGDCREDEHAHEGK

Fur P29A = target: T4, Fur P29A (Escherichia coli, UniProt P0A9A9 1-148, P29A); test: as above; conditions: protein: recombinant; tags: N-terminal His (PreScission-cleavable, removed if necessary); chain copies: 2; label: FAM; blunt
T4 sequence: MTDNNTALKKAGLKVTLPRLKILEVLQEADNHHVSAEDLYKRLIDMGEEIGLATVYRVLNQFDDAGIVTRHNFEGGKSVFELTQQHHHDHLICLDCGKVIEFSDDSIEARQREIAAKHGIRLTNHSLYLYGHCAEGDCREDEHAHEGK

Fur P18AYdiV = target: T5, Fur P18AYdiV (Escherichia coli, UniProt P0A9A9 1-148, P18A); test: as above; conditions: protein: recombinant; tags: N-terminal His (PreScission-cleavable, removed if necessary); chain copies: 2; label: FAM; blunt
T5 sequence: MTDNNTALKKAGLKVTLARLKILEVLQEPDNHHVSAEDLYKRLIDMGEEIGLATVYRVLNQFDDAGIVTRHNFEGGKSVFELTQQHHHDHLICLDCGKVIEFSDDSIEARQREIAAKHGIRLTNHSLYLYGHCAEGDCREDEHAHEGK

YdiV in the bacterial two-hybrid plasmid pKNT25-ydiV (from UniProt P76204 1-237) (natural protein)
interaction strength relative to the negative control (β-galactosidase) (times the negative control) [1]: 3

SlyD in the bacterial two-hybrid plasmid pKNT25-slyD (from UniProt P0A9K9 1-196) (natural protein)
interaction strength relative to the negative control (β-galactosidase) (times the negative control) [1]: 6

B1: native Fur protein (ferric uptake regulator, overexpressed without YdiV) (natural protein, Escherichia coli, UniProt P0A9A9 1-148, looked up)
chain: MTDNNTALKKAGLKVTLPRLKILEVLQEPDNHHVSAEDLYKRLIDMGEEIGLATVYRVLNQFDDAGIVTRHNFEGGKSVFELTQQHHHDHLICLDCGKVIEFSDDSIEARQREIAAKHGIRLTNHSLYLYGHCAEGDCREDEHAHEGK
notes: Ferric uptake regulator Fur, Escherichia coli, from plasmid pGL01fur; In the pull-down for mass spectrometry Fur was held on Ni-NTA by its N-terminal His-tag and then released by PreScission cleavage; printed mass 17 089 Da per monomer; also called Zn1Fe1Fur; source: E. coli BL21 harboring pGL01fur; in lysate on Ni-NTA (pull-down) and purified (Ni-NTA, Superdex 200); not shown: His-tag, …
stoichiometry N [2]: 2

B2: Fur^YdiV protein (Fur co-expressed with untagged YdiV) (natural protein, Escherichia coli, UniProt P0A9A9 1-148, looked up)
chain: MTDNNTALKKAGLKVTLPRLKILEVLQEPDNHHVSAEDLYKRLIDMGEEIGLATVYRVLNQFDDAGIVTRHNFEGGKSVFELTQQHHHDHLICLDCGKVIEFSDDSIEARQREIAAKHGIRLTNHSLYLYGHCAEGDCREDEHAHEGK
notes: Ferric uptake regulator Fur, Escherichia coli, from plasmid pGL01fur, co-expressed with YdiV; also called Zn1Fe1Fur^YdiV; source: E. coli BL21 harboring pGL01fur and pACYCydiV; in lysate on Ni-NTA (pull-down) and purified (Ni-NTA, Superdex 200); not shown: His-tag, N-terminal, kept
stoichiometry N [2]: 2

B3: Fur box DNA (dsDNA)
DNA 1: GATAATGATAATGATAATGATAATGATAATGA
DNA 2: TCATTATCATTATCATTATCATTATCATTATC
Kd (Zn1Fur): 7.2 µM | binding result (Fur P18A): binds | binding result (Fur P18ASlyD): binds | binding result (Fur P29A): binds | binding result (Fur P18AYdiV): binds
